Test results as given in article PMC13170346.

Tests used:
[1] = system: His6-PomZ (Myxococcus xanthus (DK1622?)); experiment: BLI; details: 1 mM ATP, 10 mM MgCl2; 5' biotin-TEG on both strands; BLI: 50 mM HEPES/NaOH pH 7.2, 50 mM KCl, 0.1 mM EDTA, 10% glycerol, 10 mM MgCl2, 1 mM β-mercaptoethanol, 0.05% Tween 20, 1 mM ATP; 100 nM DNA loaded; assay …
[2] = target: PomZ (Myxococcus xanthus) (UniProt Q1DEM0)
[3] = target: T1, His6-PomZ (Myxococcus xanthus (DK1622?)) (UniProt Q1DEM0); experiment: BLI; details: 5' biotin-TEG on both strands; BLI: 50 mM HEPES/NaOH pH 7.2, 50 mM KCl, 0.1 mM EDTA, 10% glycerol, 10 mM MgCl2, 1 mM β-mercaptoethanol, 0.05% Tween 20, 1 mM …; 100 nM DNA loaded; assay temp
T1 sequence: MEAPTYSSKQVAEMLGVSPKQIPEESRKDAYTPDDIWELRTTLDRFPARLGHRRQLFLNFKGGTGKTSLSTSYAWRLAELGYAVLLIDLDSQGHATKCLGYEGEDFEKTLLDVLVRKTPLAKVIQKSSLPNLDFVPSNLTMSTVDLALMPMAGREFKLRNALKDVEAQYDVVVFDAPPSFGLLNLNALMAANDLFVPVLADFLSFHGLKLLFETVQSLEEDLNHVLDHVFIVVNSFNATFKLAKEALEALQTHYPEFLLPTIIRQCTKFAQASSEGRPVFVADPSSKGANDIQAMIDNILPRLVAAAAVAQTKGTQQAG

[4] = target: T2, PomY624-682-mCh (gD domain) (Myxococcus xanthus (DK1622?)) (UniProt Q1DEM1); experiment: BLI; details: 5' biotin-TEG on both strands; BLI: 50 mM HEPES/NaOH pH 7.2, 50 mM KCl, 0.1 mM EDTA, 10% glycerol, 10 mM MgCl2, 1 mM β-mercaptoethanol, 0.05% Tween 20, 1 mM …; 100 nM DNA loaded; assay temp
T2 sequence: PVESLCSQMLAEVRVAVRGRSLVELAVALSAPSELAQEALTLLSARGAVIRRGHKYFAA

## cluster3 promoter PCR fragment
[1]
  Kd: 24.3 µM

## His6-Sumo-PomY^496-682-mCh (domain or fragment)
[2]
  specific His6-PomZ ATPase activity (NADH-coupled assay, 4 µM His6-PomZ, with DNA) with purified Sumo-PomY^496-682-mCh, 2 to 10 µM (ATP h^-1 µM^-1): 11.6

## GGGCCACCAAGCCCACCGCCGGCTCCAAGCGGCGGCGCCTGGAAGGCAAGAAGCGCACCTCCGAAAAAAAGGCCCTGAGAAACAGCAAATCCGGCTGGTGACCCAGGGTCCATCAGGACTCCAGTCACCCTGTCGCCGGACAGTCAGGGTGCGCCTAAAGTTTGCGAGCTCGCAGACGTTGCGAGGTCATCTGCTGCTCGCAGGGACCTCCTCCTGGGAATTTGCC (double strand) [cluster3 promoter PCR fragment]
[3]
  Kd: 24.3 µM
[4]
  binding: no binding
